According to the RNAGym collection of RNA variant scans (doi:10.1073/pnas.2313332121):

B1: TPR t1 (parent)
chain: GACCAAUCUGCCCUCAGAGCUCGAGAACAUCUUCGGAUGCAGAGGAGGCAGGCUUCGGUGGCGCGAUAGCGCCAACGUCCUCAACCUCCAAUGCAUCCCACCACAUGAUGAUGCCUGAAGAGCCUUGGUUUUUUG

Variants of: B1
Test: polymerase ribozyme fitness, log enrichment relative to wild type (log ratio); higher = more active; in vitro selection for triplet polymerase activity
How it was run: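 Fitness measures genotype enrichment against wild-type enrichment on a logarithmic scale, with inverse-variance-weighted averaging of replicates. The logarithm is base 2, and genotypes were kept only with ≥10 input reads and ≥1 read per output in Illumina sequencing. The sequenced libraries came from one triplicate in vitro selection round, including frozen incubation at −7 °C, of PCR-built, transcribed mutant libraries of each subunit of a heterodimeric triplet polymerase ribozyme.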

Variant	polymerase ribozyme fitness (log ratio)
C64U A74C A90C C101G	-4.26
U7A C20U G120U	-0.3
G57U U59A C124A	1.82
G17A G63C U109A C115A	-6.25
C22G A29C C40A G120C	-5.67
G19U U21G C49A G71A C114A	0.71
U9G A18C C56G C72A G120A U130A	-2.29
G52U U55A A83G U106A C115U	-5.1
C76G C85A U132C	-0.689
G60C A83C	-0.586
C76A C115U	-2.9
A46U C64U U81G	-6.35
C12A C13A U55A G63U U131A	-2.53
U9A C56A G77U G117U	0.546
G48A U67C	-3.66
C3A U9G G44A C62A C88G G113A C123G	-4.87
A5G C12A C73A	-0.594
U21G A50U	-2.82
C56U G77A	0.388
G48C A100U	-1.76
C124G U125A U134C	0.622

Variant	polymerase ribozyme fitness (log ratio)
A18U	-2.13
G61A U78C A95C C123A	0.138
C4U C13A A46U G52U C73A	-4.74
A29U G69U G120U	-0.561
A18G G45U C102U U109C U116G	-5.64
C34U A50C C70G C79G C89A C102G C124U	-6.39
C4A G61C C79G	-3.95
G10A A29U	-1.77
C49U G58C	-0.728
C12U G61C C94U	-0.805
G47U C72A C76A C79A C80G C94G A100C U116G C124U U129A	-7.94
C40U G45U G63U U78C	-4.36
G63C U78A	-0.719
A2G A50C A75G G113U	-3.77
U112C A121G	2.63
C34A A50U C53U A121C	-4.91
G71A C101U	-0.59
U21C A111C	0.739
G61C A90U	-4.47
G47U C104U	-1.55
C13A A74G C86A C101G	-4.34

Variant	polymerase ribozyme fitness (log ratio)
C22U U55G U106A	-3.56
C73U A103G	-4.17
G61C A111G U116G C124A U131G	-3.87
A6C C56U A83C U112G	-1.14
C88U U106A C114G	-5.05
C34U G77A	-5.22
G61U C89G	-1.53
C3A G44U	-3.37
C49U U96C C124A	1.03
G39U C62A	-2.16
C13G C40G	-0.654
A43C C101U	-2.75
C31A G63U C88G A121U	-6.64
C12U G61A U106A C114A	-0.698
C3A C62U G93C	-2.92
A41C C80G A121G U132A	-4.51
C11U C22U U38C	-4.76
A50G C89A	-1.48
A66U U125G	-1.48
C12G C15U C31A G44A G47A G63C A84U G110C	-6.78
G36U G69U A75U	-0.726

Variant	polymerase ribozyme fitness (log ratio)
C3U C11G A24G C40U C62G	-3.32
C3U C8A C11A U21A C124G	1.81
C72G A103U	-5.45
C12A C72A	0.329
C79U C99A U112C	-4.18
C80U U112G G117C	-5.23
C11U C94U	-1.24
C34A A50G G113U G120C	-6.31
C12G C40U C97U	-1.01
U9C C72A A83U A90G U131C	0.697
U54G U125A U126A	-2
C73U C76A A103U G120C	-5.45
G36A A121U U133A	1.79
C11U G71A	-1.53
C49G G51U	-3.2
C62U G117A U131A	-1.44
C11U C49U	-1.29
A27U G44U C56A U133A	-4.31
C34U C72A C123A	-5.4
C20U A46C G69C C101U	-4.11
